Data reported in PMC3834822.

Target: full-length ParE-ParC55 fusion protein of S. pneumoniae topoisomerase IV (Streptococcus pneumoniae) (UniProt Q59961)
Assay: crystal structure; full-length ParE-ParC55 fusion protein with 34 bp V-site DNA (1:2.2 protein:DNA), MgCl2; sitting drop, 50 mM sodium citrate pH 5.0, 4-7% isopropanol; space group P4(2)2(1)2, 3.7 Å; no ATP

“full-length ParE-ParC55 fusion protein of S. pneumoniae topoisomerase IV (from UniProt Q59961 1-647; P72525 1-488) (enzyme)” gave a stoichiometry N of 2.
